The values below are quoted from earlier work in US20060183681A1, “Stabilized compositions containing natriuretic peptides” (Bio-Rad Laboratories, Inc., priority 2005, published 2006).

On to B-type natriuretic peptide [BNP], for which the “half-life (t1/2) in vivo” value is recorded as “approximately 23 minutes”.
